{"source": "IntAct's records for PubMed 17690245", "key": {"ccnt1_human CCNT1": {"molecular_target": "ccnt1_human CCNT1 (UniProt O60563)"}, "cdk9_human CDK9": {"molecular_target": "cdk9_human CDK9 (UniProt P50750)"}}}
{"substance": "Bromodomain-containing protein 4 (Homo sapiens) (from UniProt O60885-1) R1337P", "values": [{"measurement": "effect of a mutation on the interaction", "setting": "ccnt1_human CCNT1", "value": "disrupting interaction"}, {"measurement": "effect of a mutation on the interaction", "setting": "cdk9_human CDK9", "value": "disrupting interaction"}]}
